Our source for the abundance fitness values is the Human Domainome abundance scans (Beltran et al. 2025).

± gives the uncertainty stated by the source.

B1: Apoptosis-associated speck-like protein containing a CARD, residues 114 to 194; numbered along this chain, Q9ULZ3 (parent)
chain: FIDQHRAALIARVTNVEWLLDALYGKVLTDEQYQAVRAEPTNPSKMRKLFSFTPAWNWTCKDLLLQALRESQSYLVEDLER

This data set covers variants of B1. The data set can be described thus: abundance fitness (aPCA) (normalised: wild type 0, dead -1); higher = more abundant; growth selection in yeast, the domain comes from the species named. The note with it: Homo sapiens.
Consider FIDQHRAALIARVTNVEWLLDALYGKVLTDEQYQAVRAEPTNPMKMRKLFSFTPAWNWTCKDLLLQALRESQSYLVEDLER [S44M], for which the abundance fitness was determined as 0.024 ± 0.089.

FIDQHRAALIARVTNVEWLLDAAYGKVLTDEQYQAVRAEPTNPSKMRKLFSFTPAWNWTCKDLLLQALRESQSYLVEDLER [L23A]: the abundance fitness was -0.753 ± 0.075.

As to FIDQHRAALIARVTNVEWLLDALYGKVLTDEQYQAVRAEPTNPSKMRKLFSFTPAWNWTCKDLLLQALGESQSYLVEDLER [R69G], the abundance fitness was -0.736 ± 0.082.

Regarding FIDQHRAALIARVTNVEWLLDALYGKVLTDEQYQAVRAEPTNPSKMRKLFSFTPAWNWTCKILLLQALRESQSYLVEDLER [D62I], the abundance fitness is -0.581 ± 0.17.

Take FIDQHRAILIARVTNVEWLLDALYGKVLTDEQYQAVRAEPTNPSKMRKLFSFTPAWNWTCKDLLLQALRESQSYLVEDLER [A8I]: the abundance fitness was -0.225 ± 0.2.

FIDQHRAALIARVLNVEWLLDALYGKVLTDEQYQAVRAEPTNPSKMRKLFSFTPAWNWTCKDLLLQALRESQSYLVEDLER [T14L]: the abundance fitness is -0.571 ± 0.09.

On to FIDQHRMALIARVTNVEWLLDALYGKVLTDEQYQAVRAEPTNPSKMRKLFSFTPAWNWTCKDLLLQALRESQSYLVEDLER [A7M], for which the abundance fitness is -0.251 ± 0.078.

For the variant FIDQHRAALIARVTNVEWLLDALYGKVLTDHQYQAVRAEPTNPSKMRKLFSFTPAWNWTCKDLLLQALRESQSYLVEDLER [E31H], the abundance fitness is -0.823 ± 0.22.

As for FIDQHRAALIARVTNVEWLLDALYGKVLTDEQVQAVRAEPTNPSKMRKLFSFTPAWNWTCKDLLLQALRESQSYLVEDLER [Y33V], the abundance fitness came to 0.136 ± 0.047.

Consider RIDQHRAALIARVTNVEWLLDALYGKVLTDEQYQAVRAEPTNPSKMRKLFSFTPAWNWTCKDLLLQALRESQSYLVEDLER [F1R], for which the abundance fitness was -0.498 ± 0.26.

For the variant FIDQHRAALIARVTNVEWLLDALYGKVLTDEQYQAVRAEPTNPSKMRKLFSFTPAWNWTCKDLLLQALRESQSYLVEDLDR [E80D], the abundance fitness is -0.165 ± 0.088.

FIDQHRAALIARVTNVEWLLDALYGKVLTDEQYQAVRAEPTNPSKMRKLFSFTPAWNWTCKDLLLQALRESQSYLVEDLRR [E80R]: the abundance fitness is -0.461 ± 0.054.

Turning to FIDQHRAALIARVTNVEWLLDALYGKVLTDEQYQAVRAEPTNPSKMRYLFSFTPAWNWTCKDLLLQALRESQSYLVEDLER [K48Y], the abundance fitness was -1.05 ± 0.3.

With FIDQHRAALIARVTNVEWLLDALYGKVLTDEQYQAVRAEPTNPSKMRKLFSFTPAWNWTCKDLLLQALRESASYLVEDLER [Q72A], the abundance fitness is -0.191 ± 0.061.

With FIDQHRAALIARVTNVEWLLDALYGKVLTDEQYQAVRAEPTNPSKMRKLFSFTPAWNWTCKDLLLQALRESPSYLVEDLER [Q72P], the abundance fitness was -0.987 ± 0.2.

Turning to FIDQHRAALIARVTNVEWLLDALYGKVLTDEQYQAVRAEPTNPSKMRKLFSFTPAWNWTCKDLLLQALRESNSYLVEDLER [Q72N], the abundance fitness worked out at 0.141 ± 0.11.

FIDQHRAALIARVTNVEWLLDALYGKVLTDEQYQAVKAEPTNPSKMRKLFSFTPAWNWTCKDLLLQALRESQSYLVEDLER [R37K]: the abundance fitness was -0.111 ± 0.1.

As for FIDQHRAALIARVTAVEWLLDALYGKVLTDEQYQAVRAEPTNPSKMRKLFSFTPAWNWTCKDLLLQALRESQSYLVEDLER [N15A], the abundance fitness was -0.718 ± 0.077.

Consider FIDQHRAALIARVTNVEWLLDALYGKVQTDEQYQAVRAEPTNPSKMRKLFSFTPAWNWTCKDLLLQALRESQSYLVEDLER [L28Q], for which the abundance fitness is -0.931 ± 0.23.

As for FIDQHRAALIARVTNVEWLLDALYGKVWTDEQYQAVRAEPTNPSKMRKLFSFTPAWNWTCKDLLLQALRESQSYLVEDLER [L28W], the abundance fitness is -0.798 ± 0.06.

Consider FIDQHRAALIARVTNVEWLLDALYQKVLTDEQYQAVRAEPTNPSKMRKLFSFTPAWNWTCKDLLLQALRESQSYLVEDLER [G25Q], for which the abundance fitness is -0.41 ± 0.1.

Consider FIDQHRAALIARVTNVEWLLDALYWKVLTDEQYQAVRAEPTNPSKMRKLFSFTPAWNWTCKDLLLQALRESQSYLVEDLER [G25W], for which the abundance fitness is -0.325 ± 0.077.

As for FIAQHRAALIARVTNVEWLLDALYGKVLTDEQYQAVRAEPTNPSKMRKLFSFTPAWNWTCKDLLLQALRESQSYLVEDLER [D3A], the abundance fitness is -0.777 ± 0.12.

For the variant FIDQHRAALIARVTNVEWLLDALYGQVLTDEQYQAVRAEPTNPSKMRKLFSFTPAWNWTCKDLLLQALRESQSYLVEDLER [K26Q], the abundance fitness was -0.249 ± 0.07.

On to FIDQHRAALIARVTNVEWLLDALYGKVLTDEQYQAVRLEPTNPSKMRKLFSFTPAWNWTCKDLLLQALRESQSYLVEDLER [A38L], for which the abundance fitness is -0.176 ± 0.05.

For FIDQHYAALIARVTNVEWLLDALYGKVLTDEQYQAVRAEPTNPSKMRKLFSFTPAWNWTCKDLLLQALRESQSYLVEDLER [R6Y], the abundance fitness was -0.327 ± 0.14.

On to FIDQHRAALIARVTNVEWLLDALYGKVLTDEQYQAVRAEPTNPSKMRKLFSFTPAWNTTCKDLLLQALRESQSYLVEDLER [W58T], for which the abundance fitness amounted to 0.319 ± 0.059.

In the case of FIDQHRAALIARVTNVEWLLDLLYGKVLTDEQYQAVRAEPTNPSKMRKLFSFTPAWNWTCKDLLLQALRESQSYLVEDLER [A22L], the abundance fitness is -0.135 ± 0.057.

As to FIDQHRAALIARVTNVEWLLDALYGKVLTDEQYQAVRAEPTNPSKMRKLFSFTPAWNWTCKDLLRQALRESQSYLVEDLER [L65R], the abundance fitness was -0.361 ± 0.068.

Take FIDQHRAALIARVTNVEWLLDALYGKVLTDEQYIAVRAEPTNPSKMRKLFSFTPAWNWTCKDLLLQALRESQSYLVEDLER [Q34I]: the abundance fitness was -0.81 ± 0.29.

Consider FIDQHRAALIARVTNVEWLLDALHGKVLTDEQYQAVRAEPTNPSKMRKLFSFTPAWNWTCKDLLLQALRESQSYLVEDLER [Y24H], for which the abundance fitness stood at 0.067 ± 0.077.

Consider FIDQHRAALIARVTNVEWLLDALYGKVLTDEQYQAVRAEPTNPSKMRKLFSFTPAWNWTCKDLLLQADRESQSYLVEDLER [L68D], for which the abundance fitness was -1.01 ± 0.43.

Consider FIDQHRAALIARVTNVEWLLDALYGKVLTDEQYQAVRAEPTNPSKMRKLFSFCPAWNWTCKDLLLQALRESQSYLVEDLER [T53C], for which the abundance fitness was -0.347 ± 0.083.

Regarding FIDQHRAALIARVTNVEWLLGALYGKVLTDEQYQAVRAEPTNPSKMRKLFSFTPAWNWTCKDLLLQALRESQSYLVEDLER [D21G], the abundance fitness was -0.331 ± 0.047.
